Test results: US20180327499A1 (published 2018)
One block for each binder: values may come before it.

Experiments:
[1] = target: T1, NKG2D on HEK-293T cells co-transfected with NKG2D and DAP10 (UniProt P26718 1-216); experiment: flow cytometry; table printed under the HEK-293 plot; legend values suggest ELISA
T1 chain: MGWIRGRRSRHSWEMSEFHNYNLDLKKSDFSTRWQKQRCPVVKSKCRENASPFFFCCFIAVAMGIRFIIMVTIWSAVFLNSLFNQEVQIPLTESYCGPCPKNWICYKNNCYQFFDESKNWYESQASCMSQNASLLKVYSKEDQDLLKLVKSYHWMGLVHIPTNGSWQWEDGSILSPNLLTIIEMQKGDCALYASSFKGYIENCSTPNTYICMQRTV

[2] = target: T2, recombinant human NKG2D/Fc chimera (R&D Systems) (human, UniProt P26718 78-216); experiment: ELISA; table printed under the ELISA plot; legend values suggest HEK-293 cells
T2 chain: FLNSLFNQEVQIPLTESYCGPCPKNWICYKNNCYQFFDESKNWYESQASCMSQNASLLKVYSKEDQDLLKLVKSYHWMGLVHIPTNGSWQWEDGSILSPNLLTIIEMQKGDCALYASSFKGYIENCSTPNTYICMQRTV

sdAb c7b = experiment: as above
bsfAb ET2F9 = experiment: flow cytometry
bsfAb ET1F8 = experiment: flow cytometry

Kd [1]: 41.1 nM | Kd [2]: 1710 nM
B1: sdAb ET2F9 (VHH)
VHH: QVQLVQSGGGLVQPGGSLRLSCAASGFTFDDYAMSWVRQAPGKGLEWVSAISWSGRTTYYAESMKGRFTTSRDNAKNTLYLQMNSLKPEDTALYYCARGDVAIRGNLDAWGQGTQVTVSS

Kd (sdAb c7b): 6.07 nM
B2: Fc-NKG2D (Fc fusion)
chain: T2 chain

Kd (bsfAb ET2F9): 33.2 nM | Kd (bsfAb ET1F8): 32.5 nM
B3: transfected HEK-293 (receptor)
chain: T1 chain
